Bridges are numbered along the chain shown (N, C = ends). Where no end group is shown, it is not given here.
T1: HER4 (UniProt Q15303 26-651, limits assumed)
T1 construct: Called 'closely related; HER4'
T1 sequence (looked up): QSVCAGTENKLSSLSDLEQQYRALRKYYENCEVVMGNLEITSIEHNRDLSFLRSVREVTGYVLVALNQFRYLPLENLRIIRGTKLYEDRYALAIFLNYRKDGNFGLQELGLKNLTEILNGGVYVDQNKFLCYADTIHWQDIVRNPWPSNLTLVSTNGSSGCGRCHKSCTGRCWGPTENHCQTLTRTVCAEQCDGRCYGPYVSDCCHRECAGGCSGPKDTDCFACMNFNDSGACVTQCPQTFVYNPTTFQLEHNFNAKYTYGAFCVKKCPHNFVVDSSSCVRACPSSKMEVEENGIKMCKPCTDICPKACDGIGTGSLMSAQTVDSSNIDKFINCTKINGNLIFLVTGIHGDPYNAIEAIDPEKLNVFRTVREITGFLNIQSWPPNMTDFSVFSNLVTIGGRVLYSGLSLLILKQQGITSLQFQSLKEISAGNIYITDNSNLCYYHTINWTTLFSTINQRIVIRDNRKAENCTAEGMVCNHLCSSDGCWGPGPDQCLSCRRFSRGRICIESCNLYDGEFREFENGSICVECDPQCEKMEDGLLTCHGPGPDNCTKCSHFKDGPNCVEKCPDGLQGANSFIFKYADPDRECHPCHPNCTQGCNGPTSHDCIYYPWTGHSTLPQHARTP


What was measured:
[1] = target: T2, HER2 extracellular domain (HER2-ECD) (human, UniProt P04626 23-652); assay: phage binding assay, immobilized HER2-ECD
T2 construct: extracellular domain; also called immobilized HER2; extracellular domain of Erb2

[2] = target: T3, HER3 (UniProt P21860 20-643, limits assumed); assay: phage binding assay on immobilized protein
T3 construct: Called 'closely related HER3'
T3 sequence (P21860 20-643 limits assumed): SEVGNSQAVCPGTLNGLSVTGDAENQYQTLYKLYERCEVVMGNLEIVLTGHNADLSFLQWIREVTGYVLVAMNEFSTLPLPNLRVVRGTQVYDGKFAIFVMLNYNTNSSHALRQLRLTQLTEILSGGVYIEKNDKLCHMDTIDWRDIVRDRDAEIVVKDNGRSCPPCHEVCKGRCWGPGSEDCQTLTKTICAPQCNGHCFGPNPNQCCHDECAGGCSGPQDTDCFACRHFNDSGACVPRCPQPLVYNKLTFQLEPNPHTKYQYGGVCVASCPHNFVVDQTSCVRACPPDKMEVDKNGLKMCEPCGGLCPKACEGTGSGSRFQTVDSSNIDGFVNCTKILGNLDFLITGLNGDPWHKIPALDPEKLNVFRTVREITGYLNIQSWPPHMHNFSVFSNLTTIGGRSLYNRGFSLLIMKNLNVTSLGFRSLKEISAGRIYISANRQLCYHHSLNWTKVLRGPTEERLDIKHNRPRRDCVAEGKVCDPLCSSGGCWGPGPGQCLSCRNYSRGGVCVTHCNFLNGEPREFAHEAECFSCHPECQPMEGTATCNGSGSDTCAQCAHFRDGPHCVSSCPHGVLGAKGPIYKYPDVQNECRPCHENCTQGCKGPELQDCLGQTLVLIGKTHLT

[3] = target: T1, HER4; assay: phage binding assay on immobilized protein
[4] = target: T4, BSA (UniProt P02769 25-607); assay: phage binding assay on immobilized protein
T4 construct: Control coating protein; also called immobilized BSA
T4 sequence (P02769 25-607 limits assumed): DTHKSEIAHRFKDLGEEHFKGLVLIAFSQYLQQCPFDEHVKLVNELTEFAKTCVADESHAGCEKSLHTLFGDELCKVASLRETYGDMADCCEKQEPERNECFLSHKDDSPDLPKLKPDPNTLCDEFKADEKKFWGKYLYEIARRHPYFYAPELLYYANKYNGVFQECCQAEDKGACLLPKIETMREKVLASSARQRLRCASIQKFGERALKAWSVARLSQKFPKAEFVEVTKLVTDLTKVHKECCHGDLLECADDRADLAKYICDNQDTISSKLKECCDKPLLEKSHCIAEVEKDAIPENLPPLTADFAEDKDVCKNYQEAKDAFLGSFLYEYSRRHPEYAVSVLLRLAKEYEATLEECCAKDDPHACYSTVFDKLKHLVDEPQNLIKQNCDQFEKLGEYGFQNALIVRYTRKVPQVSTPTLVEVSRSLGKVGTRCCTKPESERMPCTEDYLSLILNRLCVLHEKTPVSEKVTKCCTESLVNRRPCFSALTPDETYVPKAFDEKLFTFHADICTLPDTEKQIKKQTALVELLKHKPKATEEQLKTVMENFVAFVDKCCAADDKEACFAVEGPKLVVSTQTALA

[5] = target: T2, HER2 extracellular domain (HER2-ECD); assay: competition ELISA, block of 1.1.FI-Zb binding to immobilized HER2-ECD
Experimental: Following a 1 h incubation the plate was washed with PBS-Tween and Strepavidin/HRP conjugate (Streptavidin-POD, Roche Molecular Biochemicals) was added for 30 min.

[6] = target: T2, HER2 extracellular domain (HER2-ECD); assay: phage ELISA, block of 1.1FI phage binding to immobilized HER2-ECD
Experimental: HER2-ECD was immobilized directly to Maxisorp plates (Nunc) in 50 mM ammonium bicarbonate, pH 9.3, using 5 μg/ml, overnight at 4° C. Wells were blocked using PBS containing 1% BSA (PBS-BSA) for 1 h at 25° C. […] The microtiter plate was washed with PBS containing 0.05% Tween20 (PBS-Tween) and the phage bound to HER2-ECD were detected with an anti-gVIII/HRP monoclonal antibody conjugate (Amersham Pharmacia Biotech).

[7] = target: T2, HER2 extracellular domain (HER2-ECD); assay: direct binding ELISA, immobilized HER2-ECD, streptavidin-HRP detection

Row | Binder | binding result [1] | binding result [2] | binding result [3] | binding result [4] | IC50 [5] [µM] | also measured
1 | RSCADVASRCWEHCIT (not fully specified (C-terminus); cysteine pairing not given here; also: displayed on phage as pVIII fusion, also called Pool 5 clone; not shown: linker and phage coat protein pVIII (polyvalent display)) [phage clone 5.1] | binds | no binding | no binding | no binding | – | –
2 | YSFEGWGCIGPGCAYLFEGH (disulfide 8-13 (inferred), also called synthetic peptide of phage-clone 1.1.2) [Peptide HER201] | – | – | – | – | 0.3 | –
3 | QVYESWGCIGPGCACLQACLGGGSSG (Fc fusion, not fully specified (C-terminus); cysteine pairing not given here; also: fused through linker to Fc of human IgG1 (not in chain), also called peptide 1.1.FI fused through a linker to Fc of human IgG1; Her2-Fc expression vector product; not shown: Fc portion of the human IgG1 (700 base pair fragment)) [1.1FI-Fc] | – | – | – | – | – | IC50 [6]: 0.003 µM
4 | QVYESWGCIGPGCACLQACL (disulfide 8-13, 15-19, Present only as monomer by mass spectrometry; also called synthetic peptide of clone 1.1.FI) [Peptide HER212] | – | – | – | – | 9 | –
5 | CSWVLVQCGGEWWHCCGLGCGLVVNAC (not fully specified (C-terminus); printed as Cys-Ser-Trp-Val-Leu-Val-Gln-Cys-Gly-Gly-Glu-Trp-Trp-His-Cys-Cys-Gly-Leu-Gly-Cys-Gly-Leu-Val-Val-Asn-Ala-Cys; cysteine pairing not given here; also: displayed on phage as pVIII fusion, also called Pool 7 clone; not shown: linker and phage coat protein pVIII (polyvalent display)) [phage clone 7.1] | binds | no binding | no binding | no binding | – | –
6 | YEVEAWDCMGPGCANLFEAH (not fully specified (C-terminus); cysteine pairing not given here; also: displayed on phage as pVIII fusion, also called Pool 1 clone; not shown: linker and phage coat protein pVIII (polyvalent display)) [phage clone 1.1] | binds | no binding | no binding | no binding | – | –
7 | QVYESWGCIGPGCACLQACL (other, not fully specified (C-terminus); cysteine pairing not given here; also: biotinylated with NHS-LC-biotin, sites not given here, fused to Z domain of protein A (not in chain)) [1.1.FI-Zb (biotinylated 1.1.FI-Z)] | – | – | – | – | – | EC50 [7]: 0.002 µM
8 | QVYESWGCIGPGCACLQACLGGGSGGQVYESWGCIGPGCACLQACL-{Z domain of protein A} (other, not fully specified; cysteine pairing not given here; also: fused to Z domain of protein A (not in chain), also called single chain dimer; 1.1FI repeated twice and fused to the Z domain of protein A) [(1.1FI)2-Z] | – | – | – | – | 0.02 | –

From patent publication US20030171278A1 (Genentech, published 2003)
